Results published in PMC7948450.

Molecular target: ancestral flavin-containing monooxygenase 1 (AncFMO1), reconstructed mammalian ancestor of FMO1 (reconstructed mammalian ancestor)
Test: crystal structure; AncFMO1 12.5 mg/ml with 1.0 mM NADP+ in storage buffer with 0.03% DDM; sitting drop, 20 °C, 100 mM Hepes pH 7.5, PEG 4000 10%, glycerol 20%; 3.0 Å; asymmetric unit of two dimers

A stoichiometry N of 2 was found for “ancestral flavin-containing monooxygenase 1 (AncFMO1), reconstructed mammalian ancestor of FMO1 (enzyme)” in this work.
